The target in the experiment is MPP8 (M-phase phosphoprotein 8) (UniProt Q99549). Briefly: cross-linking; photo-crosslinking under UV-B irradiation of recombinant reader (3 or 10 uM CBX1, 5 uM BPTF, 3 uM MPP8) with sulfonium peptide (100 uM or various concentrations), 3 to 20 min; conjugates quantified by HR-MS.
Chain of MPP8 (M-phase phosphoprotein 8) (Q99549 whole entry): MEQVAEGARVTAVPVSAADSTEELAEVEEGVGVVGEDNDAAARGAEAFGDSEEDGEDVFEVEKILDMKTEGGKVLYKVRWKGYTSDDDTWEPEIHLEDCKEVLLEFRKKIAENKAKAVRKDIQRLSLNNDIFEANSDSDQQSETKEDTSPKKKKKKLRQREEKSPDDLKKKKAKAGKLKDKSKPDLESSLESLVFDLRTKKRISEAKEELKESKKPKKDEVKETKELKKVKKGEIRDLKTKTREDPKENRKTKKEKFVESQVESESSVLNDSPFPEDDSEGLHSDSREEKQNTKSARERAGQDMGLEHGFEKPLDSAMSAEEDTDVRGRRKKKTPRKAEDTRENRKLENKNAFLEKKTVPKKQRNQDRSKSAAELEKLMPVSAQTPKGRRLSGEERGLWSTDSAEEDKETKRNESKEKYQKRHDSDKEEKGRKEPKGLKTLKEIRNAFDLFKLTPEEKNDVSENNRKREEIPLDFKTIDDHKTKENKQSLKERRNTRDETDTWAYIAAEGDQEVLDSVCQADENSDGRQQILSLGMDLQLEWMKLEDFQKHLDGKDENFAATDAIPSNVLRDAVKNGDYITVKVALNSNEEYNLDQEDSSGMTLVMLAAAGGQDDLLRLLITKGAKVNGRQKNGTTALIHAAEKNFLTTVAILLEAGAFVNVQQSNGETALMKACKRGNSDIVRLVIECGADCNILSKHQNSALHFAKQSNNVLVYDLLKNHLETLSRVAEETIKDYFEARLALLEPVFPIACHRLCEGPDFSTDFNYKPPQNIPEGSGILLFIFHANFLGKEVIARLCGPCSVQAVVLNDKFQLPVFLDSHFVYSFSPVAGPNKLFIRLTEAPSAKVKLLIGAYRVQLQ

Consider “H3K9NleCTMS peptide (histone H3 peptide, cysteine at position 9 alkylated to cyclic tetramethylene sulfonium)”, for which the fold increase of the peptidyl conjugate yield against H3K9NleS+me2 was more than 3 fold.

The values above are taken from publication PMC11665613.
